US20240158503A1 (PIERRE FABRE MEDICAMENT, published 2024)

Experiments:
[1] = biological target: T1, human His-tagged VSIG4 short isoform (K00400002-BR1-117) (human, UniProt Q9Y279 20-283); assay: HTRF competition: His-tagged VSIG4 short isoform with C3b-d2
T1 construct: also called hVSIG4-His (short form); not shown: His tag (detected with anti-6His)

[2] = biological target: T2, hVSIG4(S)-hFc (VSIG4(S)-Fc) (human); assay: western blot, 100 ng hVSIG4 short-hFc
T2 construct: also called hVSIG4 short-hFc (S); VGIG4(S)-Fc

[3] = biological target: T1, human His-tagged VSIG4 short isoform …; assay: HTRF competition: His-tagged VSIG4 short isoform with iC3b
[4] = biological target: T3, human VSIG4 overexpressed on HEK293E cells (human, UniProt Q9Y279 20-399); assay: flow cytometry on HEK293E cells expressing human VSIG4, antibody titration
T3 construct: whole, on cells; also called hVSIG4/HEK293E; huVSIG4

VSIG4-M2-Fc = biological target: T4, VSIG4-M2-Fc (human); assay: scFv-phage ELISA on coated Fc fusion (100 ng/well), anti-M13-HRP, A490
T4 construct: 63; Leader left out; 64

VSIG4-M1-Fc = biological target: T5, VSIG4-M1-Fc (human); assay: as above
T5 construct: Short form carrying E24T, V25A, E27H, V29L, T30A; Structure [LS]-QGAVGA-[VSIG4]-LAASAAS-[FC], leader left out; 61

[5] = biological target: T6, hVSIG4-Fc (long VSIG4 form, epitope-mapping construct) (human); assay: as above
T6 construct: 55

VSIG4-M6-Fc = biological target: T7, VSIG4-M6-Fc (human); assay: as above
T7 construct: 75; Leader left out; 76

VSIG4-M4-Fc = biological target: T8, VSIG4-M4-Fc (human); assay: as above
T8 construct: 69; Leader left out; 70

VSIG4-M5-Fc = biological target: T9, VSIG4-M5-Fc (human); assay: as above
T9 construct: 72; Leader left out; 73

[6] = biological target: T10, hVSIG4-V-Fc (short VSIG4 form, epitope-mapping construct) (human); assay: as above
T10 construct: 58; All M1-M8 mutations were made in this short form

VSIG4-M3-Fc = biological target: T11, VSIG4-M3-Fc (human); assay: as above
T11 construct: 66; Leader left out; 67

VSIG4-M8-Fc [7] = biological target: T12, VSIG4-M8-Fc (human); assay: scFv-phage ELISA on coated Fc fusion (100 ng/well)
T12 construct: 81; Leader left out; 82

VSIG4-M7-Fc = biological target: T13, VSIG4-M7-Fc (human); assay: scFv-phage ELISA on coated Fc fusion (100 ng/well)
T13 construct: 78; Leader left out; 79

VSIG4-M8-Fc [8] = biological target: T12, VSIG4-M8-Fc; assay: scFv-phage ELISA on coated Fc fusion (100 ng/well), anti-M13-HRP, A490

B1: SA2297 (full-length human anti-VSIG4 monoclonal antibody, IgG form) (antibody, V domains shown)
VH: QVQLVESGGGVVQPGGSLRLSCAASGFIFSDYYMSWVRQAPGKGLEWVSYISPSGYTISYADSVKGRFTISRDNSKNSLYLQMNSLRAEDTAVYYCARRFSSSWSGYFDYWGHGALVTVSS
VL: DIQMTQSPSTLSASVGDRVTITCRASQNINRWLAWYQQKPGKAPKLLIYKAFRLHSGVPSRFSGSGSGTEFTLTITSLQPDDFATYYCQQYLSYSSSIFGQGTKVEIK
notes: also called Mab SA2297
Q: How did the IC50 [1] turn out when B1 was run?
A: 16.4 nM

Q: Does B1 bind [2]?
A: binds

Q: What about the IC50 [3] of the same binder?
A: 17.9 nM

Q: And the EC50 [4]?
A: 1.18 nM

B2: SA2297 scFv-phage (original scFv version of SA2297) (scFv, V domains shown)
VH: QVQLVESGGGVVQPGGSLRLSCAASGFIFSDYYMSWVRQAPGKGLEWVSYISPSGYTISYADSVKGRFTISRDNSKNSLYLQMNSLRAEDTAVYYCARRFSSSWSGYFDYWGHGALVTVSS
VL: DIQMTQSPSTLSASVGDRVTITCRASQNINRWLAWYQQKPGKAPKLLIYKAFRLHSGVPSRFSGSGSGTEFTLTITSLQPDDFATYYCQQYLSYSSSIFGQGTKVEIK
Q: Does B2 bind (VSIG4-M2-Fc)?
A: binds

Q: Does B2 bind (VSIG4-M1-Fc)?
A: binds

Q: Does B2 bind [5]?
A: binds

Q: Does B2 bind (VSIG4-M6-Fc)?
A: binds

Q: Does B2 bind (VSIG4-M4-Fc)?
A: binds

Q: Does B2 bind (VSIG4-M5-Fc)?
A: binds

Q: Does B2 bind [6]?
A: binds

Q: Does B2 bind (VSIG4-M3-Fc)?
A: binds

Q: Does B2 bind (VSIG4-M8-Fc [7])?
A: no binding

Q: Does B2 bind (VSIG4-M7-Fc)?
A: no binding

B3: SA2281 (full-length human anti-VSIG4 monoclonal antibody, IgG form) (antibody, V domains shown)
VH: QVQLVESGGGVVQPGRSLRVSCAASGFTFSTYAMHWVRQAPGKGLEWLAVVSHDGTYKYYGDSVKGRFSISRDNSKNTLYLQMNSLRSEDTAVYYCGRHAAGSSFDYWGQGTVVTVSS
VL: DIQMTQSPSSLSASVGDRVTITCQASRDISNYLNWYQQKPGKAPKLLIYKTSNLQRGVPSRFSGSGSGTEFTLTISRLQPDDSATYYCQQSYRTPYTFGQGTKLEIK
notes: also called Mab SA2281
Q: What does the source list for B3?
A: IC50 [1]: 7.3 nM; binding result [2]: binds; IC50 [3]: 9.5 nM; EC50 [4]: 0.461 nM

B4: SA2281 scFv-phage (original scFv version of SA2281) (scFv, V domains shown)
VH: QVQLVESGGGVVQPGRSLRVSCAASGFTFSTYAMHWVRQAPGKGLEWLAVVSHDGTYKYYGDSVKGRFSISRDNSKNTLYLQMNSLRSEDTAVYYCGRHAAGSSFDYWGQGTVVTVSS
VL: DIQMTQSPSSLSASVGDRVTITCQASRDISNYLNWYQQKPGKAPKLLIYKTSNLQRGVPSRFSGSGSGTEFTLTISRLQPDDSATYYCQQSYRTPYTFGQGTKLEIK
Q: Does B4 bind (VSIG4-M2-Fc)?
A: binds

Q: Does B4 bind (VSIG4-M1-Fc)?
A: binds

Q: Does B4 bind [5]?
A: binds

Q: Does B4 bind (VSIG4-M6-Fc)?
A: binds

Q: Does B4 bind (VSIG4-M4-Fc)?
A: binds

Q: Does B4 bind (VSIG4-M5-Fc)?
A: binds

Q: Does B4 bind (VSIG4-M8-Fc [8])?
A: binds

Q: Does B4 bind [6]?
A: binds

Q: Does B4 bind (VSIG4-M3-Fc)?
A: binds

Q: Does B4 bind (VSIG4-M7-Fc)?
A: no binding
